Experiment: yeast display, Sf9 membrane polyspecificity reagent, FACS + sequencing; frameworks hold sequencing errors
Outline: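 Sorting gates, low and high (top ~1%), were placed on anti-HA fluorescence to track expression and on streptavidin fluorescence to track reagent binding. A clone's polyreactivity label is taken from the gate it came out of. The reagent was 10% biotinylated, detergent-solubilized Sf9 membrane, applied for 1 hour at 4 °C to galactose-induced yeast display cells.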

Sequence | polyreactivity (PSR sort gate)
QVQLVESGGGLVQARGSLRLSCAASGSIFLYYAMGWYRQAPGKEREFVAAISIIGGSTYYADSVKGRFTISRDNAKNTVYLQMNSLKPEDTAVYYCAADYYYHRWTSVEGGYWGQGTQVTVSS | low polyreactivity
QVQLVESGGGLVQARGSLRLSCAASGSIFRSYAMGWYRQAPGKERELVAAITSGGNTYYADSVKGRFTISRDNAKNTVYLQMNSLKPEDTAVYYCAKRRYNYLSDYDYWGQGTQVTVSS | low polyreactivity
QVQLVESGGGLVQARGSLRLSCAASGSIFYYNTMGSDRQAPGKEREFVAAITYSGGSTYYSDSVKGRFTISRDKAKKTVYLLMNSLKPEDTAVYYCAAYIFYFSGGLNNRGTRGYWGQGTQVTVSS | low polyreactivity
QVQLVESGGGLVQARGSLRLSCAASGSTFGRYVMGWYRQAPGKERELVAAISKNAGSTYYADSVKGRFTISRDNAKNTVYLQMTSLKPEDTAVYYCAADWRTKGYDSLGQGTQVTVSS | high polyreactivity
QVQLVESGGGLVQARGSLRLSCAASGSTFPYYAMGWYRQAPGKARELVAAITSSTGRTYYADSVKGRFTISRDNAKNTVYLQMNSLKPEDTAVYYSNAEVYSDPYNDHDYWGQGTQVTVSS | low polyreactivity
QVQLVESGGGLVQARGSLRLSCAASGSTFVQNAMGWYRQAPGKEREFVAAIRVSGDNTYYADSVKGRFTISLDNAKNTVYLQMNSLKPEDTAVYYFAATGTFVGSVDYWGQGTQVTVSS | low polyreactivity
QVQLVESGGGLVQARGSLRLSCAASGSTLRRYAMGWYRQAPGKERELVAAISSSGGSTYYADSVKGRFTISRDNAKNTVYLQMNSLKPEDTAVYYCAALVRKRVNTYQGYYPGDYWGQGTQGTVSS | high polyreactivity
QVQLVESGGGLVQARGSLRLSCAASGSTVGYNAMGWYRQAPGKERELVAAISGNGGSTYADSVKGRFTISRDNAKNTVYLQMNSLKPEDTAVYYCAAVQYGYGLASDSIFDYWGQGTQVTVSS | high polyreactivity
QVQLVESGGGLVQARGSLRLSCAASVITFRHNTMGWYRQAPGKERELVSTNYADSVKGRFTISRDNAKNTVYLQMNSLKQEDTAVYYCNADGTFEYDYWGQGTQVTVSS | low polyreactivity
QVQLVESGGGLVQARGSLRLSCAATGRTFQIYAMGWYRQAPGKERELVAAISSGGRTNYADSVKGRFTISRDNAKNTVYLQMNSLKPEDTAVYYCAKRWARPGMDYWGQGTQVTVSS | high polyreactivity
QVQLVESGGGLVQARGSLRLSCASSGRTFYTYAMGWYRQAPGKERELVAAIRRVGSTNYADSVKGRFTISRDNAKNTGYLQMNSLKPEDTAVYYCAVRLVWPWQGYDYWGQGTQVTVSS | low polyreactivity
QVQLVESGGGLVQARGSLRLSCASSGSIFGWNAMGGYRQAPGKERELVAAISSVGSTYYADSVKGRFTISRDNAKNTVYLQMNSLKPEDTAVYYCAAPVIQITDVWYDAETYPDYDYWGEGTQVTVSS | low polyreactivity
QVQLVESGGGLVQARGSLRLSSAASGIIFYEYAMGCYRQAPGKERELVAAISDTGGSTYYADSVKGRFTISRDNAKNTVYLQMNSLKPEDTAVYYCAAEYLAYYSGYDYWGQGTQVTVSS | high polyreactivity
QVQLVESGGGLVQARGSLRLSSAPSGRTFTVYAMGWYRHARGKERELVAAIRRTGSTYYADSVKGRFTISRDNAKNTVYLQMNSLKPEDTAVYYCYARPSTGWSIYGVDYWGQGTQGTVSS | low polyreactivity
QVQLVESGGGLVQARGSLRLSWAASGSTFQVYAMGWSRPAPGKERELVAAINYSGGSTYYADSVKGRFTISRDNAKNTVYVLMNSLKPEDTAVYYCAVKLRSRAGTSYGYWGQGTQVTVSS | high polyreactivity
QVQLVESGGGLVQARGSLRLTCAASGYIFSAYAMGWYRQAPGKERELVAAISRGGSTKYADSVKGRFTISRDNAKNTVSLQMNSVKPEDPAVYDCATVVYHRRPPRTGHEYWGQGTQVTVSS | high polyreactivity
QVQLVESGGGLVQARGTLRLSCAASGFTVFSYAMGWYRQAPGKESELVASISGSSSTYYADSVKGRFTISRDNAKNTVSVQMNSLTPDDTAVYYCAVDYHQAWPSGDYWFEYDYWGQGTQVTVSS | low polyreactivity
QVQLVESGGGLVQARRSLRLSCAASGITFVFYTMGWYRQAPGKERELVAAITSSGVRTSYADSVKGRFTISRDNAMNTVYLQMNSLKPEDTAVYYCAAKPTYVHKPGYNYWGQGTQVTVSS | high polyreactivity
QVQLVESGGGLVQARRSLRLSCAASGSTFVGNTMGWYRQAPGTERELVAAISRRGGGTNYADSVKGRFTISRDNAKNTVYLQMNSLKPEDTAVYYCAAKLVYPGKFNYWGQGTQVTVSS | high polyreactivity
QVQLVESGGGLVQARVSLRLSCPASGRIFARYALGSSRQAPGTEREFVAAISRGGSTKYADSEKGRFTISRDNAKNTVYLQMNSLKPEDTAVYYCARQLWGSAYGAYYAGDYWGQGTQVTVSS | low polyreactivity

Sequence | polyreactivity (PSR sort gate)
QVQLVESGGGLVQARVSLRLSSAASGFIIYPYVMGWYRQAPGKERELVATIRTDGRTSYADSVKGRFTISRDNAKNTFYLQMNSLKPEDTAVYYCDARSPLYYIVPYELVQYDYWGLGTQVTVSS | high polyreactivity
QVQLVESGGGLVQAVGSLLLSCAASGSTFRYNAMGWYRQAPGKEREFVATISWTTGSSYYADSVKGRFTISRDNAKNTVYLQLNSLKPEDTAFYFCAADASLFSDFRDYDYWGQGTQVPVSS | low polyreactivity
QVQLVESGGGLVQAVGSLRLSCAASGFIFVRYAMGWYRQAPAKERELVAAISYSGGSTYYADSVKGRFTISRDNAKNTVYLQMNSLKPEDTAVYYCAAEYYSGGYRYYAEYGYWGQGTQVTVSS | high polyreactivity
QVQLVESGGGLVQAVGSLRLSCAASGFISKYYAMGWYRQAPGKERELVASISRDGSTSYADSVKGRFTISRDNAKNTVYLQMNSLKPEDTAVYYCAAPSYRTRYYYWGQGTQVTVSS | high polyreactivity
QVQLVESGGGLVQAVGSLRLSCAASGGIITSSAMGWYRLAPGKEWELVAAITGIGGRTYYADSVKGRFTISRDNAKNTVYLQMNSLKPEDTAVYYCKAAYTYVTAWYYYCGQGTQVTVSS | high polyreactivity
QVQLVESGGGLVQAVGSLRLSCAASGITFRWYTMGWYRQAPGKERELVASIRYGGGSTYYADSVKGRFTISRDNAKNTVYLQMNSLKPEDTAVYYCDAESAWTSPYDYWGQGTQVTVSS | high polyreactivity
QVQLVESGGGLVQAVGSLRLSCAASGLTFYSNAMGWYRQAPGKERELVATISQDGGRTYYADSVKGRFTISRDNAKNTVYLQMNSLKPEDTAVYYCAKDLYHTVGRYDYWGQGTQVTVSS | low polyreactivity
QVQLVESGGGLVQAVGSLRLSCAASGNIFHRNAMGWYRQAPGKEMELVAAISWSGGSTYYADSVKGRFTISRDNAKNTVYLQMNSLKPEDTAVYFCNAYYYYRFKPSHPGLRSYYWGQGTQVTVSS | high polyreactivity
QVQLVESGGGLVQAVGSLRLSCAASGRTFAFYTMGWYRPAHGKERELVAAINWSGTRTYYADSVKGRVTISRDKAKNTVYLQMNSLKPEDTAVYYCNVAFFSLSLRTLGVEYWGQGTQVTVST | high polyreactivity
QVQLVESGGGLVQAVGSLRLSCAASGSIFLLYDMGWYRPAPGKERELVAAITWSGGSTYYADSVKGRFTISRDNAKNTVYLQMNSLKPEDTAVYYCAADEPYPTAYEYWGQGTQVTVSS | low polyreactivity
QVQLVESGGGLVQAVGSLRLSCAASGSTFGKNAMGWYRQAPGKERELVAAISTSGTRSFYADSVKGRFTISRDTAKNTVYLQMNSLKPEDTAVYYCNAGRSSRAYYYWGQGTQVTVSS | high polyreactivity
QVQLVESGGGLVQAVGSLRLSCAASGSTTFYAMGSYRQAPRKEWELVATISSSAGSTYYADSVKGRFTISRDNAKNTVFFQMNSLKPEDTAVFYCNAADAVSDYPDFHIYDYWGQGTQVTVSS | low polyreactivity
QVQLVESGGGLVQAVGSLRLSCAASGTFARYAMGWYRQGPGKERELVAAISSRGGSTYYADSVKGRFTISRDNAENTVYLQMNSLKPEDTAVYYCAAAHQYYPEYYYWGQGTQVTVSS | high polyreactivity
QVQLVESGGGLVQAVGSLRLSCAPSGSTFFKYARGWYRQAPGKERELVAVITRSGGTTYYADSVKGRFTISRDNAKNTVYLLMNSLKPEDTAVYYCAAGYYQYHRGYPTFTRYDYWGQGTQVTVSS | high polyreactivity
QVQLVESGGGLVQAVVSLRLSCAASGGTITSYAMVSSRQAPGKERELVAAITRSGGSTYYADSVKGRFTISRDNAKNTVYLQMKSLKPEDTAVYYCAARYWHSYGYWGQGTQVTVSS | high polyreactivity
QVQLVESGGGLVQEGGCLRLSCAASGSIFQGYAMGWYRQAPGKERELVAAITTDGDSTYYADSVKGRFTISRDNAKNTDYLEMNSLKPVDTAVYYCAADQDGRWEGSSEQGDSWGQGTQVTVSS | low polyreactivity
QVQLVESGGGLVQEGGILPLSCAASGFIFGDYVMGWYRQAPGKERELVAAINRNGGRTYYADSVKGRFTISRDYAKNTVYLQMNSLKPEDTAVFYCAAVFRSDRYHWYYYWGQGTQVTVSS | high polyreactivity
QVQLVESGGGLVQEGGILRLICAASGIIFPIYAMGWYRQAPGKERELVAAISQSGASTYYADSVKGRFTISRDNAKNTVYLALNSLKPEDTAVYYCAALNGDGPWQLSSEEFVYWGQGTQVTVSS | low polyreactivity
QVQLVESGGGLVQEGGRLRLSCAASGRIFWDNDMGWYRQAPGKERELVAAISRRGGSTSYADSVKGRFTISRDNAKNTVYLQMNSLKPEDTAVFYCNVRTRWTRVRRYDYWGQVTQVTVSS | high polyreactivity
QVQLVESGGGLVQEGGSLRISCAASGRTFIGYTIGWYRQAPRKERELFAAITWNGGRTYYADSVKGRFTISRDNAKNTVYLQMNSLKPEVTAVYYCAAPRRVVIGGGDYWGQGTQVTVSS | high polyreactivity

Reference: the nanobody polyreactivity screen of Harvey et al. (2022)
